From article PMC11059244 come the findings set out here.

The conditions of the data set: phosphorylation at S405.

In the case of YAP: S405A, the degradation_or_half_life entry is recorded as “decreases” and the other result is given as “increases”. With YAP: S405D phosphomimetic, the other result is reported as “decreases”. As for YAP: ponatinib (MAP3K3 inhibitor), the expression_or_secretion result was “decreases”.
